Measurements from publication PMC3688715.

Biological target: Heteropneustes fossilis hepatic cytosolic arginase (ARG I) (Heteropneustes fossilis (endogenous in liver))
Assay: SEC + other: SDS-PAGE and western blotting; native mass of the purified enzyme by gel filtration on Sephadex G-150 with four standard proteins (75±3 kDa); subunit mass by SDS-PAGE and western blotting (24 kDa); single band on native PAGE

stoichiometry N: 3
Substance: Heteropneustes fossilis hepatic cytosolic arginase (ARG I) (enzyme)
